Results on 3 molecules are retold here after paper PMC8073111.

For one assay, the target named is T1, C-myc-CCR4-RLuc8 (human) (UniProt P51679).
T1 sequence: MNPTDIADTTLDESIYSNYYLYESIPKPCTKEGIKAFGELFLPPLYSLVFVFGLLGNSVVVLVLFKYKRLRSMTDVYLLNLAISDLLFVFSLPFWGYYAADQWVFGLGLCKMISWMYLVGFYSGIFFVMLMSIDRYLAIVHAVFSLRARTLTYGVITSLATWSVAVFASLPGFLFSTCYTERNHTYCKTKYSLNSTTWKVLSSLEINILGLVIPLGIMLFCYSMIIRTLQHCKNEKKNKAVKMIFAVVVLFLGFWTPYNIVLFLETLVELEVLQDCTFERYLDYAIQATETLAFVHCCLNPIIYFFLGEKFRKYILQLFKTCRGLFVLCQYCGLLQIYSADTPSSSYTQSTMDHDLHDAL

The target in assay [1] is C-myc-CCR7-RLuc8 (human) (UniProt P32248).
UniProt P32248, sequence (P32248 25-378): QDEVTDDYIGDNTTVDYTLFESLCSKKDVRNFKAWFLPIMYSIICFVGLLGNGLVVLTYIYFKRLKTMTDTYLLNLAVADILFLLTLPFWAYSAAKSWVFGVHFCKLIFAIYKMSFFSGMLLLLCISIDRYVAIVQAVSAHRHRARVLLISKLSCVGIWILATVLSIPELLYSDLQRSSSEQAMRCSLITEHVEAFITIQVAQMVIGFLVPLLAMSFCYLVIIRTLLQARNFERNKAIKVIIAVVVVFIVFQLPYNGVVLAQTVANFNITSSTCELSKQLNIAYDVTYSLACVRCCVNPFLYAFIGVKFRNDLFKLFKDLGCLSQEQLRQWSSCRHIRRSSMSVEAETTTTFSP
Assay [2] shares this target. To be noted: scale: pEC50.
For assay [3], the target named is T2, C-myc-CCR10-RLuc8 (human) (UniProt P46092).
T2 sequence: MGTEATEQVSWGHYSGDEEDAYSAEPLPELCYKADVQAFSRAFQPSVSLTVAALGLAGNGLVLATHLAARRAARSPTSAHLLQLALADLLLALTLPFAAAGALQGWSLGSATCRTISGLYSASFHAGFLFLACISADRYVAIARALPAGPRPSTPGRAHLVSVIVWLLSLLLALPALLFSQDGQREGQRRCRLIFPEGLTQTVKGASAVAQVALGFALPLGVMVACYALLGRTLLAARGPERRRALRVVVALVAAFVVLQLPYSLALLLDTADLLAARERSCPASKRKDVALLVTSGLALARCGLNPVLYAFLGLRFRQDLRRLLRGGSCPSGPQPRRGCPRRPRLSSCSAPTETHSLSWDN

In the case of “CC chemokine ligand 17 (CCL17) (from UniProt Q92583 24-94)”, the β-arrestin2 recruitment to CCR4 (BRET): Emax relative to CCL22 with C-myc-CCR4-RLuc8 (human) came to 28%.

Turning to “CCL21 (from UniProt O00585 24-134) (ligand)”, in the assay with C-myc-CCR7-RLuc8 (human) [1], the G protein activation via CCR7: Emax relative to CCL19 came out at 103% and the cAMP inhibition via CCR7: Emax relative to CCL19 worked out at 99%. In addition, the β-arrestin2 recruitment to CCR7 (BRET): pEC50 as printed in the text, assuming the same Emax value (differs from Table 1) with C-myc-CCR7-RLuc8 (human) [2] was determined as 6.7.

B1: CCL28(4-108) (ligand)
chain: ILPIASSCCTEVSHHISRRLLERVNMCRIQRADGDCDLAAVILHVKRRRICVSPHNHTVKQWMKVQAAKKNGKGNVCHRKKHHGKRNSNRAHQGKHETYGHKTPY
In the case of B1, in assay [3], the G protein activation via CCR10: maximum signal observed relative to the Emax of CCL27; curve not saturated was determined as 80%; the NFAT Ca2+ reporter via CCR10: Emax relative to CCL27 was 106%; the cAMP inhibition via CCR10: maximum signal observed relative to the Emax of CCL27; curve not saturated is 64%; the β-arrestin2 recruitment to CCR10 (BRET): maximum signal observed relative to the Emax of CCL27; curve not saturated, potency ND is 82%.
